Assay results from ChEMBL document CHEMBL4261651, “Probing the ligand preferences of the three types of bacterial pantothenate kinase” (Bioorg Med Chem, 2018).

How the values were obtained:
[1] = compound: CCCCCn1cc(CCNC(=O)[C@H](O)C(C)(C)CO)nn1; assay: (§1) Substrate activity at N-terminal His6-tagged Staphylococcus aureus PanK2 expressed in Escherichia coli BL21(DE3) cells assessed as Km in presence of ATP/NADH by pyruvate kinase/lactate dehydrogenase enzyme coupled assay
[2] = compound: CC(C)(CO)[C@@H](O)C(=O)NCc1cn(CCc2ccccc2)nn1; assay: as §1
[3] = compound: CC(C)(CO)[C@@H](O)C(=O)NCCC(=O)O; assay: as §1
[4] = compound: CCCCn1cc(CCNC(=O)[C@H](O)C(C)(C)CO)nn1; assay: as §1
[5] = compound: CCCc1cn(CCCNC(=O)[C@H](O)C(C)(C)CO)nn1; assay: as §1
[6] = compound: CC(C)(CO)[C@@H](O)C(=O)NCCCC(=O)O; assay: as §1
[7] = compound: COC(=O)CNC(=O)[C@H](O)C(C)(C)CO; assay: as §1
[8] = compound: CCCCCn1cc(CNC(=O)[C@H](O)C(C)(C)CO)nn1; assay: as §1
[9] = compound: CCCCCNC(=O)CCNC(=O)[C@H](O)C(C)(C)CO; assay: as §1
[10] = compound: CCCCCc1cn(CCNC(=O)[C@H](O)C(C)(C)CO)nn1; assay: as §1
[11] = compound: CCCCCn1cc(CCNC(=O)[C@H](O)C(C)(C)CO)nn1; assay: (§2) Substrate activity at N-terminal His6-tagged Staphylococcus aureus PanK2 expressed in Escherichia coli BL21(DE3) cells assessed as Kcat in presence of ATP/NADH by pyruvate kinase/lactate dehydrogenase enzyme coupled assay
[12] = compound: CC(C)(CO)[C@@H](O)C(=O)NCc1cn(CCc2ccccc2)nn1; assay: as §2
[13] = compound: CC(C)(CO)[C@@H](O)C(=O)NCCC(=O)O; assay: as §2
[14] = compound: CCCCn1cc(CCNC(=O)[C@H](O)C(C)(C)CO)nn1; assay: as §2
[15] = compound: CCCc1cn(CCCNC(=O)[C@H](O)C(C)(C)CO)nn1; assay: as §2
[16] = compound: CC(C)(CO)[C@@H](O)C(=O)NCCCC(=O)O; assay: as §2
[17] = compound: COC(=O)CNC(=O)[C@H](O)C(C)(C)CO; assay: as §2
[18] = compound: CCCCCn1cc(CNC(=O)[C@H](O)C(C)(C)CO)nn1; assay: as §2
[19] = compound: CCCCCNC(=O)CCNC(=O)[C@H](O)C(C)(C)CO; assay: as §2
[20] = compound: CCCCCc1cn(CCNC(=O)[C@H](O)C(C)(C)CO)nn1; assay: as §2
[21] = compound: O=C(O)CCNC(=O)[C@H](O)CCO; assay: (§3) Substrate activity at Pseudomonas aeruginosa PanK3 expressed in Escherichia coli BL21(DE3) cells assessed as Km in presence of ATP/NADH by pyruvate kinase/lactate dehydrogenase enzyme coupled assay
[22] = compound: CC(C)(CO)[C@@H](O)C(=O)NCCC(=O)O; assay: as §3
[23] = compound: CC(C)(CO)[C@@H](O)C(=O)NCCCC(=O)O; assay: as §3
[24] = compound: O=C(O)CCNC(=O)[C@H](O)CCO; assay: (§4) Substrate activity at Pseudomonas aeruginosa PanK3 expressed in Escherichia coli BL21(DE3) cells assessed as Kcat in presence of ATP/NADH by pyruvate kinase/lactate dehydrogenase enzyme coupled assay
[25] = compound: CC(C)(CO)[C@@H](O)C(=O)NCCC(=O)O; assay: as §4
[26] = compound: CC(C)(CO)[C@@H](O)C(=O)NCCCC(=O)O; assay: as §4

B1: Type II pantothenate kinase (Staphylococcus aureus (strain MSSA476)), Q6G7I0 (protein)
chain: MKVGIDAGGTLIKIVQEQDNQRTFKTELTKNIDQVVEWLNQQQIEKLCLTGGNAGVIAENINIPAQIFVEFDAASQGLGILLKEQGHDLADYIFANVGTGTSLHYFDGQSQRRVGGIGTGGGMIQGLGYLLSQITDYKQLTDMAQHGDRNTIDLKVRHIYKDTEPPIPGDLTAANFGHVLHHLDADFTPSNKLAAVIGVVGEVVTTMAITVAREFKTENIVYIGSSFHNNALLRKVVEDYTVLRGCKPYYVENGAFSGAIGALYLEK
B1 showed a Km [1] of 6.8 µM, a Km [2] of 126 µM and a Km [3] of 19 µM. It also gave a Km [4] of 7.1 µM, a Km [5] of 369 µM and a Km [6] of 60 µM. For the same protein, the Km [7] was 36 µM, the Km [8] was 64 µM and the Km [9] was < 1.5 µM. The Km [10] was 8.5 µM, the kcat [11] was 0.73 s⁻¹ and the kcat [12] was 4.7 s⁻¹. The kcat [13] was 2.16 s⁻¹, the kcat [14] was 0.82 s⁻¹ and the kcat [15] was 7.6 s⁻¹. It also gave a kcat [16] of 3.4 s⁻¹, a kcat [17] of 4 s⁻¹ and a kcat [18] of 3.4 s⁻¹. It also gave a kcat [19] of 0.44 s⁻¹ and a kcat [20] of 0.82 s⁻¹.

B2: Type III pantothenate kinase (Pseudomonas aeruginosa (strain ATCC 15692 / DSM 22644 / CIP 104116 /JCM 14847 / LMG 12228 / 1C / PRS 101 / PAO1)), Q9HWC1 (protein)
chain: MILELDCGNSLIKWRVIEGAARSVAGGLAESDDALVEQLTSQQALPVRACRLVSVRSEQETSQLVARLEQLFPVSALVASSGKQLAGVRNGYLDYQRLGLDRWLALVAAHHLAKKACLVIDLGTAVTSDLVAADGVHLGGYICPGMTLMRSQLRTHTRRIRYDDAEARRALASLQPGQATAEAVERGCLLMLRGFVREQYAMACELLGPDCEIFLTGGDAELVRDELAGARIMPDLVFVGLALACPIE
B2 showed a Km [21] of 64 µM, a Km [22] of 20 µM and a Km [23] of 683 µM. It also gave a kcat [24] of 0.32 s⁻¹, a kcat [25] of 0.39 s⁻¹ and a kcat [26] of 0.98 s⁻¹.
